The labels stand for the following.
T1: FcγRIIa H (FcγRIIa type H, His at position 131), extracellular domain with C-terminal His tag (human, UniProt P12318 34-217)
T1 construct: extracellular domain; also called FcgRIIa H; 2aH
T1 sequence (looked up): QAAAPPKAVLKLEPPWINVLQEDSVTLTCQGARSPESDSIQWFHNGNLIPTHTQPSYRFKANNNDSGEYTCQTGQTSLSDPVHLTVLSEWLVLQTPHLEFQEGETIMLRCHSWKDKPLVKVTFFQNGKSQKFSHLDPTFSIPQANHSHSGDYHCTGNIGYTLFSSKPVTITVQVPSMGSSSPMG

T2: FcγRIIb extracellular domain with C-terminal His tag (human, UniProt P31994 43-217)
T2 construct: extracellular domain; also called FcgRIIb; 2b; not shown: His tag at the C terminus
T2 sequence (looked up): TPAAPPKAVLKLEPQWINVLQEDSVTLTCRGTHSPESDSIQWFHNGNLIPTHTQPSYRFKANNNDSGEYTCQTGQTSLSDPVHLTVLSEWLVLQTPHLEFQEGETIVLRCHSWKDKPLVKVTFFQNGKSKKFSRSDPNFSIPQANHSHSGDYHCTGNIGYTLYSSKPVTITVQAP

B1: GpH7-A5/GpH7-B3 variant S239_09D/GpL16-k0 (antibody, human IgG1, kappa)
heavy 1: not shown
heavy 2: not shown
light: DIVMTQSPLSLPVTPGEPASISCQASESLVHSNRNTYLHWYLQKPGQSPQLLIYKVSNRFSGVPDRFSGSGSGTDFTLKISRVEAEDVGVYYCSQNTHVPPTFGQGTKVEIERTVAAPSVFIFPPSDEQLKSGTASVVCLLNNFYPREAKVQWKVDNALQSGNSQESVTEQDSKDSTYSLSSTLTLSKADYEKHKVYACEVTHQGLSSPVTKSFNRGEC
notes: one H chain mutated; also called He Ab
B2: GpH7-A5/GpH7-B3 variant S324_02A/GpL16-k0 (antibody, human IgG1, kappa)
heavy 1: not shown
heavy 2: not shown
light: DIVMTQSPLSLPVTPGEPASISCQASESLVHSNRNTYLHWYLQKPGQSPQLLIYKVSNRFSGVPDRFSGSGSGTDFTLKISRVEAEDVGVYYCSQNTHVPPTFGQGTKVEIERTVAAPSVFIFPPSDEQLKSGTASVVCLLNNFYPREAKVQWKVDNALQSGNSQESVTEQDSKDSTYSLSSTLTLSKADYEKHKVYACEVTHQGLSSPVTKSFNRGEC
notes: as for B1
B3: GpH7-A5/GpH7-B3 variant T335_19Q/GpL16-k0 (antibody, human IgG1, kappa)
heavy 1: not shown
heavy 2: not shown
light: DIVMTQSPLSLPVTPGEPASISCQASESLVHSNRNTYLHWYLQKPGQSPQLLIYKVSNRFSGVPDRFSGSGSGTDFTLKISRVEAEDVGVYYCSQNTHVPPTFGQGTKVEIERTVAAPSVFIFPPSDEQLKSGTASVVCLLNNFYPREAKVQWKVDNALQSGNSQESVTEQDSKDSTYSLSSTLTLSKADYEKHKVYACEVTHQGLSSPVTKSFNRGEC
notes: as for B1
B4: GpH7-A5/GpH7-B3 variant T335_16H/GpL16-k0 (antibody, human IgG1, kappa)
heavy 1: not shown
heavy 2: not shown
light: DIVMTQSPLSLPVTPGEPASISCQASESLVHSNRNTYLHWYLQKPGQSPQLLIYKVSNRFSGVPDRFSGSGSGTDFTLKISRVEAEDVGVYYCSQNTHVPPTFGQGTKVEIERTVAAPSVFIFPPSDEQLKSGTASVVCLLNNFYPREAKVQWKVDNALQSGNSQESVTEQDSKDSTYSLSSTLTLSKADYEKHKVYACEVTHQGLSSPVTKSFNRGEC
notes: as for B1
B5: GpH7-A5/GpH7-B3 variant S324_20W/GpL16-k0 (antibody, human IgG1, kappa)
heavy 1: not shown
heavy 2: not shown
light: DIVMTQSPLSLPVTPGEPASISCQASESLVHSNRNTYLHWYLQKPGQSPQLLIYKVSNRFSGVPDRFSGSGSGTDFTLKISRVEAEDVGVYYCSQNTHVPPTFGQGTKVEIERTVAAPSVFIFPPSDEQLKSGTASVVCLLNNFYPREAKVQWKVDNALQSGNSQESVTEQDSKDSTYSLSSTLTLSKADYEKHKVYACEVTHQGLSSPVTKSFNRGEC
notes: as for B1
B6: GpH7-A5/GpH7-B3 variant S337_16H/GpL16-k0 (antibody, human IgG1, kappa)
heavy 1: not shown
heavy 2: not shown
light: DIVMTQSPLSLPVTPGEPASISCQASESLVHSNRNTYLHWYLQKPGQSPQLLIYKVSNRFSGVPDRFSGSGSGTDFTLKISRVEAEDVGVYYCSQNTHVPPTFGQGTKVEIERTVAAPSVFIFPPSDEQLKSGTASVVCLLNNFYPREAKVQWKVDNALQSGNSQESVTEQDSKDSTYSLSSTLTLSKADYEKHKVYACEVTHQGLSSPVTKSFNRGEC
notes: as for B1
B7: GpH7-A5/GpH7-B3 variant S324_06M/GpL16-k0 (antibody, human IgG1, kappa)
heavy 1: not shown
heavy 2: not shown
light: DIVMTQSPLSLPVTPGEPASISCQASESLVHSNRNTYLHWYLQKPGQSPQLLIYKVSNRFSGVPDRFSGSGSGTDFTLKISRVEAEDVGVYYCSQNTHVPPTFGQGTKVEIERTVAAPSVFIFPPSDEQLKSGTASVVCLLNNFYPREAKVQWKVDNALQSGNSQESVTEQDSKDSTYSLSSTLTLSKADYEKHKVYACEVTHQGLSSPVTKSFNRGEC
notes: as for B1
B8: GpH7-A5/GpH7-B3 variant T335_15Y/GpL16-k0 (antibody, human IgG1, kappa)
heavy 1: not shown
heavy 2: not shown
light: DIVMTQSPLSLPVTPGEPASISCQASESLVHSNRNTYLHWYLQKPGQSPQLLIYKVSNRFSGVPDRFSGSGSGTDFTLKISRVEAEDVGVYYCSQNTHVPPTFGQGTKVEIERTVAAPSVFIFPPSDEQLKSGTASVVCLLNNFYPREAKVQWKVDNALQSGNSQESVTEQDSKDSTYSLSSTLTLSKADYEKHKVYACEVTHQGLSSPVTKSFNRGEC
notes: as for B1
B9: GpH7-A5/GpH7-B3 variant S324_09D/GpL16-k0 (antibody, human IgG1, kappa)
heavy 1: not shown
heavy 2: not shown
light: DIVMTQSPLSLPVTPGEPASISCQASESLVHSNRNTYLHWYLQKPGQSPQLLIYKVSNRFSGVPDRFSGSGSGTDFTLKISRVEAEDVGVYYCSQNTHVPPTFGQGTKVEIERTVAAPSVFIFPPSDEQLKSGTASVVCLLNNFYPREAKVQWKVDNALQSGNSQESVTEQDSKDSTYSLSSTLTLSKADYEKHKVYACEVTHQGLSSPVTKSFNRGEC
notes: as for B1
B10: GpH7-A5/GpH7-B3 variant T335_07I/GpL16-k0 (antibody, human IgG1, kappa)
heavy 1: not shown
heavy 2: not shown
light: DIVMTQSPLSLPVTPGEPASISCQASESLVHSNRNTYLHWYLQKPGQSPQLLIYKVSNRFSGVPDRFSGSGSGTDFTLKISRVEAEDVGVYYCSQNTHVPPTFGQGTKVEIERTVAAPSVFIFPPSDEQLKSGTASVVCLLNNFYPREAKVQWKVDNALQSGNSQESVTEQDSKDSTYSLSSTLTLSKADYEKHKVYACEVTHQGLSSPVTKSFNRGEC
notes: as for B1
B11: GpH7-A5/GpH7-B3 variant T335_13S/GpL16-k0 (antibody, human IgG1, kappa)
heavy 1: not shown
heavy 2: not shown
light: DIVMTQSPLSLPVTPGEPASISCQASESLVHSNRNTYLHWYLQKPGQSPQLLIYKVSNRFSGVPDRFSGSGSGTDFTLKISRVEAEDVGVYYCSQNTHVPPTFGQGTKVEIERTVAAPSVFIFPPSDEQLKSGTASVVCLLNNFYPREAKVQWKVDNALQSGNSQESVTEQDSKDSTYSLSSTLTLSKADYEKHKVYACEVTHQGLSSPVTKSFNRGEC
notes: as for B1
B12: GpH7-A5/GpH7-B3 variant S267_02A/GpL16-k0 (antibody, human IgG1, kappa)
heavy 1: not shown
heavy 2: not shown
light: DIVMTQSPLSLPVTPGEPASISCQASESLVHSNRNTYLHWYLQKPGQSPQLLIYKVSNRFSGVPDRFSGSGSGTDFTLKISRVEAEDVGVYYCSQNTHVPPTFGQGTKVEIERTVAAPSVFIFPPSDEQLKSGTASVVCLLNNFYPREAKVQWKVDNALQSGNSQESVTEQDSKDSTYSLSSTLTLSKADYEKHKVYACEVTHQGLSSPVTKSFNRGEC
notes: as for B1
B13: GpH7-A5/GpH7-B3 variant S337_14T/GpL16-k0 (antibody, human IgG1, kappa)
heavy 1: not shown
heavy 2: not shown
light: DIVMTQSPLSLPVTPGEPASISCQASESLVHSNRNTYLHWYLQKPGQSPQLLIYKVSNRFSGVPDRFSGSGSGTDFTLKISRVEAEDVGVYYCSQNTHVPPTFGQGTKVEIERTVAAPSVFIFPPSDEQLKSGTASVVCLLNNFYPREAKVQWKVDNALQSGNSQESVTEQDSKDSTYSLSSTLTLSKADYEKHKVYACEVTHQGLSSPVTKSFNRGEC
notes: as for B1
B14: GpH7-A5/GpH7-B3 variant S324_10E/GpL16-k0 (antibody, human IgG1, kappa)
heavy 1: not shown
heavy 2: not shown
light: DIVMTQSPLSLPVTPGEPASISCQASESLVHSNRNTYLHWYLQKPGQSPQLLIYKVSNRFSGVPDRFSGSGSGTDFTLKISRVEAEDVGVYYCSQNTHVPPTFGQGTKVEIERTVAAPSVFIFPPSDEQLKSGTASVVCLLNNFYPREAKVQWKVDNALQSGNSQESVTEQDSKDSTYSLSSTLTLSKADYEKHKVYACEVTHQGLSSPVTKSFNRGEC
notes: as for B1
B15: GpH7-A5/GpH7-B3 variant T335_10E/GpL16-k0 (antibody, human IgG1, kappa)
heavy 1: not shown
heavy 2: not shown
light: DIVMTQSPLSLPVTPGEPASISCQASESLVHSNRNTYLHWYLQKPGQSPQLLIYKVSNRFSGVPDRFSGSGSGTDFTLKISRVEAEDVGVYYCSQNTHVPPTFGQGTKVEIERTVAAPSVFIFPPSDEQLKSGTASVVCLLNNFYPREAKVQWKVDNALQSGNSQESVTEQDSKDSTYSLSSTLTLSKADYEKHKVYACEVTHQGLSSPVTKSFNRGEC
notes: as for B1
B16: GpH7-A5/GpH7-B3 variant T335_01G/GpL16-k0 (antibody, human IgG1, kappa)
heavy 1: not shown
heavy 2: not shown
light: DIVMTQSPLSLPVTPGEPASISCQASESLVHSNRNTYLHWYLQKPGQSPQLLIYKVSNRFSGVPDRFSGSGSGTDFTLKISRVEAEDVGVYYCSQNTHVPPTFGQGTKVEIERTVAAPSVFIFPPSDEQLKSGTASVVCLLNNFYPREAKVQWKVDNALQSGNSQESVTEQDSKDSTYSLSSTLTLSKADYEKHKVYACEVTHQGLSSPVTKSFNRGEC
notes: as for B1
B17: GpH7-A5/GpH7-B3 variant S337_09D/GpL16-k0 (antibody, human IgG1, kappa)
heavy 1: not shown
heavy 2: not shown
light: DIVMTQSPLSLPVTPGEPASISCQASESLVHSNRNTYLHWYLQKPGQSPQLLIYKVSNRFSGVPDRFSGSGSGTDFTLKISRVEAEDVGVYYCSQNTHVPPTFGQGTKVEIERTVAAPSVFIFPPSDEQLKSGTASVVCLLNNFYPREAKVQWKVDNALQSGNSQESVTEQDSKDSTYSLSSTLTLSKADYEKHKVYACEVTHQGLSSPVTKSFNRGEC
notes: as for B1
B18: GpH7-A5/GpH7-B3 variant S337_10E/GpL16-k0 (antibody, human IgG1, kappa)
heavy 1: not shown
heavy 2: not shown
light: DIVMTQSPLSLPVTPGEPASISCQASESLVHSNRNTYLHWYLQKPGQSPQLLIYKVSNRFSGVPDRFSGSGSGTDFTLKISRVEAEDVGVYYCSQNTHVPPTFGQGTKVEIERTVAAPSVFIFPPSDEQLKSGTASVVCLLNNFYPREAKVQWKVDNALQSGNSQESVTEQDSKDSTYSLSSTLTLSKADYEKHKVYACEVTHQGLSSPVTKSFNRGEC
notes: as for B1
B19: GpH7-B3 variant K326_07I/GpL16-k0 (antibody, human IgG1, kappa)
heavy: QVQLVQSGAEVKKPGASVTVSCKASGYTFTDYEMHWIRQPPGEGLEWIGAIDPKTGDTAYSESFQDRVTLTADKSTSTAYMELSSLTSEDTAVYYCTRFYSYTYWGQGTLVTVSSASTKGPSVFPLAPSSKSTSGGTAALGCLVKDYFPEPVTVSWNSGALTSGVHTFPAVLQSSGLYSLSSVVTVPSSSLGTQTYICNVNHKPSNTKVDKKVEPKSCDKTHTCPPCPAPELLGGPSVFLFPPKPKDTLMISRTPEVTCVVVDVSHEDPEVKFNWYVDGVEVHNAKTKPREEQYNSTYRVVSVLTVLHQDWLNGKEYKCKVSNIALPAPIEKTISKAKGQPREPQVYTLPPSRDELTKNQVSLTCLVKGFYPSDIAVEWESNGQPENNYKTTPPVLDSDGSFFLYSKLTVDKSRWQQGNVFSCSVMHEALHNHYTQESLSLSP
light: DIVMTQSPLSLPVTPGEPASISCQASESLVHSNRNTYLHWYLQKPGQSPQLLIYKVSNRFSGVPDRFSGSGSGTDFTLKISRVEAEDVGVYYCSQNTHVPPTFGQGTKVEIERTVAAPSVFIFPPSDEQLKSGTASVVCLLNNFYPREAKVQWKVDNALQSGNSQESVTEQDSKDSTYSLSSTLTLSKADYEKHKVYACEVTHQGLSSPVTKSFNRGEC
notes: also called Ho Ab K326_07I

One assay addresses T1, FcγRIIa H (FcγRIIa type H, His at …). Nature of the assay: SPR Biacore, relative binding, GpH7-A5/GpH7-B3/GpL16-k0 (HeCon Ab)=100. The procedure:
(§1) Analysis of interaction between objective antibody and the FcγR was carried out using Biacore T100 (GE Healthcare). HBS-EP+ (GE Healthcare) was used as the running buffer, and the measurement temperature was set to 25° C. Chips produced by immobilizing the antigen peptide by the amine coupling method to a Series S Sencor Chip CM5 (GE Healthcare), or alternatively, chips produced by allowing preliminarily biotinylated antigen peptides to interact with and immobilize onto a Series S Sensor Chip SA (certified) (GE Healthcare) were used. Antibodies of interest were captured onto an antigen peptide-immobilized chip, and allowed to interact to each FcγR diluted with running buffer. To regenerate and repeatedly use the chip, the antibodies captured on the chip were washed off by reacting 10 mM glycine-HCl, pH 1.5.
For B1, the He/Con_2aH was 114 % of control. Consider B2, for which the He/Con_2aH was 102 % of control. Regarding B3, the He/Con_2aH was 103 % of control.

Take B4: the He/Con_2aH is 105 % of control. The same measure, in the same setting: for B5 the value was 103 % of control; for B6, 101 % of control; for B7, 117 % of control. Take B8: the He/Con_2aH was 106 % of control. Same read-out and setting: for B9 the value was 106 % of control; for B10, 108 % of control. On the same count and under the same terms, to B11 belongs 106 % of control; to B12, 120 % of control. The same measure, in the same setting: to B13 belongs 103 % of control. Regarding B14, the He/Con_2aH was 103 % of control. With B15, the He/Con_2aH is 108 % of control. In the case of B16, the He/Con_2aH was 103 % of control. For B17, the He/Con_2aH was 107 % of control. For the molecule B18, the He/Con_2aH is 102 % of control.

The target of another assay is T2, FcγRIIb extracellular domain with …. Nature of the assay: SPR, relative binding, HoCon Ab = 100. The method, then: as §1
Turning to B19, the Ho/Con_2b is 170 % of control.

(Values after patent US20150344570A1 (published 2015).)
